Assay results published in paper PMC5739299 (Molecular Biology of the Cell, 2017).

Target: T1, Alcadein α-FLAG, wild type, dephosphorylated with λPPase (human, UniProt O94985-2 29-971, dephosphorylated with λPPase on the beads)
T1 sequence (looked up): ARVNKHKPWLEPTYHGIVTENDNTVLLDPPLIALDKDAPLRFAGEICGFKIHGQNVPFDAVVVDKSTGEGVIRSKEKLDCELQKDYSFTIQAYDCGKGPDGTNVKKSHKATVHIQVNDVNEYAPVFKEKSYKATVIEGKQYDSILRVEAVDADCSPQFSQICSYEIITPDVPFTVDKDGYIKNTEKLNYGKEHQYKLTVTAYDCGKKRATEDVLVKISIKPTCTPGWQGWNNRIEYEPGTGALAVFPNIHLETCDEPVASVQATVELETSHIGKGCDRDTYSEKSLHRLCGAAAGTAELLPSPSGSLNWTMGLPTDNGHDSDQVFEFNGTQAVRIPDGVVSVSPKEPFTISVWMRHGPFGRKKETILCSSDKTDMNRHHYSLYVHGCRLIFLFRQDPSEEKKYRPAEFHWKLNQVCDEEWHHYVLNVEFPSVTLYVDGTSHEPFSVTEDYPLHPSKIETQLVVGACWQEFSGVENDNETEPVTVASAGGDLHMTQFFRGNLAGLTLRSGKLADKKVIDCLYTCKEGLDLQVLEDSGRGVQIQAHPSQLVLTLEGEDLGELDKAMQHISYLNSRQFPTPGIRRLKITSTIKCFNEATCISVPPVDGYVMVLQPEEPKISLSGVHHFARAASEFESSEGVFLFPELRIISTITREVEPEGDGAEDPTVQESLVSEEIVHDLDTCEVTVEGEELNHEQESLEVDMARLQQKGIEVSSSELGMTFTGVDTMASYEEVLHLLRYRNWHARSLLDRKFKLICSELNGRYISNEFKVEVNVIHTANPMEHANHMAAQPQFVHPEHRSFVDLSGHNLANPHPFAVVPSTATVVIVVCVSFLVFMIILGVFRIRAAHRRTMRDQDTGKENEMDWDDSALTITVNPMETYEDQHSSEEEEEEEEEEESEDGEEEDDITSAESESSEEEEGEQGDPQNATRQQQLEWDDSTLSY
Assay: pull-down

B1: HA-KLC1 (kinesin light chain 1) (natural protein, UniProt O88447 1-541, looked up)
chain: MYDNMSTMVYIKEEKLENVTQDEIISKTKQVIQGLEALKNEHNSILQSLLETLKCLKKDDESNLVEEKSSMIRKSLEMLELGLSEAQVMMALSNHLNAVESEKQNVRAQVRRLCQENQWLRDELANTQQKLQKSEQSVAQLEEEKKHLEFMNQLKKYDDDISPSEDKDSDSSKEPLDDLFPNDEDEPGQGIQHSDSSAAAARQGYEIPARLRTLHNLVIQYASQGRYEVAVPSCKQALEDLEKTSGHDHPDVATMLNILALVYRDQNKYKDAANLLNDALAIREKTLGRDHPAVAATLNNLAVLYGKRGKYKEAEPLCKRALEIREKVLGKDHPDVAKQLNNLALLCQNQGKYEEVEYYYQRALGIYQTKLGPDRTPNVAKTKNNLASCYLKQGKFKQAETLYKEILTRAHEAEFGSVDDENKPIWMHAEEREECKGKQKDGSAFGEYGGWYKACKVDSPTVTTTLKNLGALYRRQGKFEAAETLEEAAMRSRKQGLDNVHKQRVAEVLNDPESMEKRRSRESLNMDVVKYESGPDGGEEA
In the case of B1, the “recovery of HA-KLC1 relative to Alcα-FLAG without λPPase treatment” value is reported as roughly 20%.
